No end group written: not given here. alkyl = not defined here

T1 sequence (Q08464 29-570): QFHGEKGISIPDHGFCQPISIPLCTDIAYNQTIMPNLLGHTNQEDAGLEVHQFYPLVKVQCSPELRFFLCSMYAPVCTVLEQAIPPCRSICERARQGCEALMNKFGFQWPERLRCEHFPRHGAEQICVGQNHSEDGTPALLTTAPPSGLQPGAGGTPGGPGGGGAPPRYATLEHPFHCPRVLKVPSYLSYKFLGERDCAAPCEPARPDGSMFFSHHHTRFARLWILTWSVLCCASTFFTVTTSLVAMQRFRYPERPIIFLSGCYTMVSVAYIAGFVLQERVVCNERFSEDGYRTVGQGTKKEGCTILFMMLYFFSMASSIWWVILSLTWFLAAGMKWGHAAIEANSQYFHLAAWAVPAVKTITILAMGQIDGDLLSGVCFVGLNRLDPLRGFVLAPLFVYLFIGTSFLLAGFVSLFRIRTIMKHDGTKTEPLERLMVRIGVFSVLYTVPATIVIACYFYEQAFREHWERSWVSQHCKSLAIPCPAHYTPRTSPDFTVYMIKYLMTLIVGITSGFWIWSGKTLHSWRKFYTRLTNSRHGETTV

The first assay addresses T1, rFzd-2 (frizzled-2 receptor) (rat, UniProt Q08464 29-570). In words: cell-based or functional assay.
With C(alkyl)NKTSEGMDGC(alkyl)EL (reading uncertain; also: alkyl group not given here) [UM206 (C = C-alkyl)], the “% of inhibition of Wnt3a-induced luciferase activity (peptide at 1.10^-9 M)” value (from here on “% of inhibition … (peptide at 1.10^-9 M)”) turned out to be 12.4%.

With ANKTSEGMDGCEL [UM206 (1 C = A)], the “% of inhibition … (peptide at 1.10^-9 M)” value was determined as 82.6%.

Consider CNKTSEGMDGCEA [UM206 (13 L = A)], for which the “% of inhibition … (peptide at 1.10^-9 M)” value was 86.5%.

CNKTAEGMDGCEL [UM206 (5 S = A)]: the “% of inhibition … (peptide at 1.10^-9 M)” value was 87.3%.

As to CNVSSHGIDGCDL [peptide CNVSSHGIDGCDL (SEQ ID NO: 18), derived from the area of Wnt3a homologous to UM206], the “% of inhibition … (peptide at 1.10^-9 M)” value is 62.4%.

Take CAKTSEGMDGCEL [UM206 (2 N = A)]: the “% of inhibition … (peptide at 1.10^-9 M)” value was found to be 79.5%.

Consider CNKASEAMAGCEL [UM206 (4 T = A, 7 G = A, 9 D = A)], for which the “% of inhibition … (peptide at 1.10^-9 M)” value turned out to be 17.5%.

On to Ac-CNKTSEGMDGCEL-NH2 (cysteine pairing not given here) [Peptide UM206 (linear), Ac-Cys-Asn-Lys-Thr-Ser-Glu-Gly-Met-Asp-Gly-Cys-Glu-Leu-NH2], for which the “% of inhibition … (peptide at 1.10^-9 M)” value came out at 75.1%.

With CNKTSEGMAGCEL [UM206 (9 D = A)], the “% of inhibition … (peptide at 1.10^-9 M)” value worked out at 60.5%.

Consider CNKASEGMDGCEL [UM206 (4 T = A)], for which the “% of inhibition … (peptide at 1.10^-9 M)” value worked out at 59.4%.

With CNKTSAGMDGCEL [UM206 (6 E = A)], the “% of inhibition … (peptide at 1.10^-9 M)” value stood at 84.7%.

On to CNKTSEGMDGAEL [UM206 (11 C = A)], for which the “% of inhibition … (peptide at 1.10^-9 M)” value was 84.9%.

On to CNKTSEGMDACEL [UM206 (10 G = A)], for which the “% of inhibition … (peptide at 1.10^-9 M)” value was 83.3%.

Consider SNKTSEGMDGSEL [UM206 (C = S)], for which the “% of inhibition … (peptide at 1.10^-9 M)” value worked out at 17%.

Turning to ANKTSEGMDGAEL [UM206 (C = A)], the “% of inhibition … (peptide at 1.10^-9 M)” value was determined as 8.39%.

For CNKTSEGMDGCAA [UM206 (12-13 EL = AA)], the “% of inhibition … (peptide at 1.10^-9 M)” value was 74.3%.

As to CNKTSEGADGCEL [UM206 (8 M = A)], the “% of inhibition … (peptide at 1.10^-9 M)” value was 85%.

CNKTSEGMDGC [UM206 - (label cut short in Table 3; taken as UM206 with the C-terminal Glu-Leu deleted)]: the “% of inhibition … (peptide at 1.10^-9 M)” value is 61.2%.

Regarding CNKTSEGMDGCAL [UM206 (12 E = A)], the “% of inhibition … (peptide at 1.10^-9 M)” value worked out at 85.5%.

In the case of CNKTSEAMDGCEL [UM206 (7 G = A)], the “% of inhibition … (peptide at 1.10^-9 M)” value stood at 63.1%.

Consider CNATSEGMDGCEL [UM206 (3 K = A)], for which the “% of inhibition … (peptide at 1.10^-9 M)” value was 84.9%.

The target of the next assay is T2, rFzd-1 (frizzled-1 receptor) (rat, UniProt Q08463 69-641). In words: cell-based or functional assay.
T2 sequence (Q08463 69-641): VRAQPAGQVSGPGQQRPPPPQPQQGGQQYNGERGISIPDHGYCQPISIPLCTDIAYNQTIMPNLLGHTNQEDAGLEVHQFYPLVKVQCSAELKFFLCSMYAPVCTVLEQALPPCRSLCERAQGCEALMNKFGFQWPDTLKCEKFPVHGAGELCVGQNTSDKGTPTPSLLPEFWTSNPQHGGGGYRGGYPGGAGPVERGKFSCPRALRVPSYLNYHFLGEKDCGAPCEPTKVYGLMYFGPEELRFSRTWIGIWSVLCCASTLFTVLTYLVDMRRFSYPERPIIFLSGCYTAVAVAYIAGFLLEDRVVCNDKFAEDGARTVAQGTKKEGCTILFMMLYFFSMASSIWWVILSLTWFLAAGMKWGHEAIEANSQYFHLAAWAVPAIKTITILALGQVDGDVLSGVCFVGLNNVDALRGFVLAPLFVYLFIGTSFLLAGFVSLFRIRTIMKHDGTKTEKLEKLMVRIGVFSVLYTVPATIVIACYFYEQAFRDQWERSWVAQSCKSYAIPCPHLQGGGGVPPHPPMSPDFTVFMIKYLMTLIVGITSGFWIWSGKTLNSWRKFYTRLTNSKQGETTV
Consider C(alkyl)NKTSEGMDGC(alkyl)EL (reading uncertain; also: alkyl group not given here) [UM206 (C = C-alkyl)], for which the “% of inhibition … (peptide at 1.10^-9 M)” value was found to be 1%.

Consider ANKTSEGMDGCEL [UM206 (1 C = A)], for which the “% of inhibition … (peptide at 1.10^-9 M)” value came out at 70.8%.

For the molecule CNKTSEGMDGCEA [UM206 (13 L = A)], the “% of inhibition … (peptide at 1.10^-9 M)” value was 65.9%.

For the molecule CNKTAEGMDGCEL [UM206 (5 S = A)], the “% of inhibition … (peptide at 1.10^-9 M)” value was 74.3%.

As to CNVSSHGIDGCDL [peptide CNVSSHGIDGCDL (SEQ ID NO: 18), derived from the area of Wnt3a homologous to UM206], the “% of inhibition … (peptide at 1.10^-9 M)” value came to 45.3%.

For CAKTSEGMDGCEL [UM206 (2 N = A)], the “% of inhibition … (peptide at 1.10^-9 M)” value came out at 68%.

In the case of CNKASEAMAGCEL [UM206 (4 T = A, 7 G = A, 9 D = A)], the “% of inhibition … (peptide at 1.10^-9 M)” value was 11.2%.

On to Ac-CNKTSEGMDGCEL-NH2 (cysteine pairing not given here) [Peptide UM206 (linear), Ac-Cys-Asn-Lys-Thr-Ser-Glu-Gly-Met-Asp-Gly-Cys-Glu-Leu-NH2], for which the “% of inhibition … (peptide at 1.10^-9 M)” value was 72.2%.

As for CNKTSEGMAGCEL [UM206 (9 D = A)], the “% of inhibition … (peptide at 1.10^-9 M)” value was determined as 40.5%.

Take CNKASEGMDGCEL [UM206 (4 T = A)]: the “% of inhibition … (peptide at 1.10^-9 M)” value was 28.1%.

With CNKTSAGMDGCEL [UM206 (6 E = A)], the “% of inhibition … (peptide at 1.10^-9 M)” value worked out at 70.8%.

Consider CNKTSEGMDGAEL [UM206 (11 C = A)], for which the “% of inhibition … (peptide at 1.10^-9 M)” value came out at 67.2%.

As to CNKTSEGMDACEL [UM206 (10 G = A)], the “% of inhibition … (peptide at 1.10^-9 M)” value amounted to 69.9%.

SNKTSEGMDGSEL [UM206 (C = S)]: the “% of inhibition … (peptide at 1.10^-9 M)” value was 0%.

Consider ANKTSEGMDGAEL [UM206 (C = A)], for which the “% of inhibition … (peptide at 1.10^-9 M)” value was determined as 0%.

As for CNKTSEGMDGCAA [UM206 (12-13 EL = AA)], the “% of inhibition … (peptide at 1.10^-9 M)” value was found to be 66.8%.

With CNKTSEGADGCEL [UM206 (8 M = A)], the “% of inhibition … (peptide at 1.10^-9 M)” value amounted to 67.6%.

Turning to CNKTSEGMDGC [UM206 - (label cut short in Table 3; taken as UM206 with the C-terminal Glu-Leu deleted)], the “% of inhibition … (peptide at 1.10^-9 M)” value was determined as 18%.

As to CNKTSEGMDGCAL [UM206 (12 E = A)], the “% of inhibition … (peptide at 1.10^-9 M)” value is 65.9%.

Take CNKTSEAMDGCEL [UM206 (7 G = A)]: the “% of inhibition … (peptide at 1.10^-9 M)” value came to 52.6%.

For CNATSEGMDGCEL [UM206 (3 K = A)], the “% of inhibition … (peptide at 1.10^-9 M)” value turned out to be 70.8%.

For the next assay, the target named is T3, mouse Fzd-2 (mouse, UniProt Q9JIP6 29-570).
T3 construct: whole, on cells; also called frizzled-2 (mouse)
T3 sequence (Q9JIP6 29-570): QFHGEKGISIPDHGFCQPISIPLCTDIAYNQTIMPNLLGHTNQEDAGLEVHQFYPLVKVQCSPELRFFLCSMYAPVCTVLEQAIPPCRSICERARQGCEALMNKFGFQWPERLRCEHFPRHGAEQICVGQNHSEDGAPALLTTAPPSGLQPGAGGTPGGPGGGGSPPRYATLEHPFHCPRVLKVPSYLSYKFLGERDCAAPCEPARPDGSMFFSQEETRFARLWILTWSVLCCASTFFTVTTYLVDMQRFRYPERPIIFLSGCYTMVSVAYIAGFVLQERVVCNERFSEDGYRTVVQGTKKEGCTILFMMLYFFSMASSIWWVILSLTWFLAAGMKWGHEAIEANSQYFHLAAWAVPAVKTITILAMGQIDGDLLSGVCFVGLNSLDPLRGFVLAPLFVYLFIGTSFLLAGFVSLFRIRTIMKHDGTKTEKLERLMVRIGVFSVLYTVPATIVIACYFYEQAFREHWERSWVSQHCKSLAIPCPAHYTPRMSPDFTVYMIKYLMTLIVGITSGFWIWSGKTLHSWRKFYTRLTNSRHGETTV
In words: competition: UM207 (1.10^-7 M) pre-incubated on mouse tissue sections, competitor UM206-rhodamine. The method, then: (§1) Specificity of the binding site was confirmed by prior incubation of the tissue sections with UM207 (1.10⁻⁷ M) or recombinant Wnt3a (1.10⁻⁸ M). Both compounds completely abolished the binding of UM206-rhodamine to its receptors.
For Ac-GIKECQYQFRHRRWNCSTVD-NH2 (cysteine pairing not given here), the binding result is “binds”.

The next assay deals with T4, mouse Fzd-1 (mouse, UniProt O70421 69-642).
T4 construct: whole, on cells; also called frizzled-1 (mouse)
T4 sequence (O70421 69-642): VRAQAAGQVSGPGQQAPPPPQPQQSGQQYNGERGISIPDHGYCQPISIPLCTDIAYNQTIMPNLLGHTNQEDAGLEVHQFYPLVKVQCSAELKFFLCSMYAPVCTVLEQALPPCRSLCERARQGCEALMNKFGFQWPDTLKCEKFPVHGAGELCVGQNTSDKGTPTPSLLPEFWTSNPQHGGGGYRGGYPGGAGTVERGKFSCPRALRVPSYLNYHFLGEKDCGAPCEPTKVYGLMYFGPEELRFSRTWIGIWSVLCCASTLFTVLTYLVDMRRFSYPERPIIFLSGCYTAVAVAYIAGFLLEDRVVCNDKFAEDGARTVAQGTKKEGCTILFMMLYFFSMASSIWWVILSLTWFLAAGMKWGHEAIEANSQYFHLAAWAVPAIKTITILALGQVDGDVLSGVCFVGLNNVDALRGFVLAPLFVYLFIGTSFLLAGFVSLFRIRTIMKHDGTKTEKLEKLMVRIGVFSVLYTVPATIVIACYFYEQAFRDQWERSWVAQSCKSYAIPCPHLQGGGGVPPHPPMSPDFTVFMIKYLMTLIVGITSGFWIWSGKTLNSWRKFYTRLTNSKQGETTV
The assay is described as above. The method, then: as §1
Consider Ac-GIKECQYQFRHRRWNCSTVD-NH2 (cysteine pairing not given here), for which the binding result is recorded as “binds”.

A further assay concerns the target T1, rFzd-2 (frizzled-2 receptor). In words: cell-based or functional assay. The source holds these as a separate data set.
For Ac-CNKTSEGMDGCEL-NH2 (cysteine pairing not given here) [Peptide UM206 (linear), Ac-Cys-Asn-Lys-Thr-Ser-Glu-Gly-Met-Asp-Gly-Cys-Glu-Leu-NH2], the “IC50, inhibition of Wnt3a (10^-9 M)-induced luciferase, HEK293-superTOPflash, two-binding-state fit” value stood at 0.0169 nM and the “affinity ratio against rFzd-1, from reporter IC50 values” is approximately 100 fold.

As to GSCSLKTCWLQLAD [UM208], the “IC50, inhibition of Wnt3a (10^-9 M)-induced luciferase, HEK293-superTOPflash, single binding site fit” value (shortened to “IC50, inhibition … single binding site fit”) was 2110 nM.

For Ac-GIKECQYQFRHRRWNCSTVD-NH2 (cysteine pairing not given here), the “IC50, inhibition … single binding site fit” value was 15.2 nM.

A further assay has as its target T2, rFzd-1 (frizzled-1 receptor). Kind of assay: cell-based or functional assay. This is another data set of the same source.
For the molecule Ac-CNKTSEGMDGCEL-NH2 (cysteine pairing not given here) [Peptide UM206 (linear), Ac-Cys-Asn-Lys-Thr-Ser-Glu-Gly-Met-Asp-Gly-Cys-Glu-Leu-NH2], the “IC50, inhibition of Wnt3a (10^-9 M)-induced luciferase, HEK293-superTOPflash, two-binding-state fit” value is 2.1 nM.

As to GSCSLKTCWLQLAD [UM208], the “IC50, inhibition … single binding site fit” value is 2060 nM.

As for Ac-GIKECQYQFRHRRWNCSTVD-NH2 (cysteine pairing not given here), the “IC50, inhibition … single binding site fit” value was found to be 40 nM.

For the origin of these results see patent US20150071856A1 (UNIVERSITEIT MAASTRICHT, published 2015).
